Data: article PMC3506659, “Snm1B Interacts with PSF2” (PLoS ONE, 2012)
Values belong to the molecule of their own block, whether it stands above or below them.

Assays:
[1] = molecular target: N-terminal Myc epitope-tagged human PSF2 (Myc-PSF2) (UniProt Q9Y248); assay: co-immunoprecipitation (IP anti-Flag, IB anti-Myc), band ratio; settings: 293T cells, transient expression
[2] = molecular target: T1, N-terminal Flag epitope-tagged human Snm1B (Flag-Snm1B) (human, UniProt Q9H816 1-532); assay: co-IP; 293T transiently co-transfected, RIPA lysate, Flag-Snm1B immunoprecipitated with anti-Flag M2 affinity gel at 4°C overnight, immunoblot for Myc-PSF2 or Mus81; with or without co-expressed Myc-PSF2 or HA-Mus81; settings: partners not purified
T1 construct: also called Flag-Snm1B-WT; Flag-Snm1B^WT; source: 293T, transiently transfected (pLPC), in lysate; not shown: Flag, N-terminal, kept
T1 sequence (looked up): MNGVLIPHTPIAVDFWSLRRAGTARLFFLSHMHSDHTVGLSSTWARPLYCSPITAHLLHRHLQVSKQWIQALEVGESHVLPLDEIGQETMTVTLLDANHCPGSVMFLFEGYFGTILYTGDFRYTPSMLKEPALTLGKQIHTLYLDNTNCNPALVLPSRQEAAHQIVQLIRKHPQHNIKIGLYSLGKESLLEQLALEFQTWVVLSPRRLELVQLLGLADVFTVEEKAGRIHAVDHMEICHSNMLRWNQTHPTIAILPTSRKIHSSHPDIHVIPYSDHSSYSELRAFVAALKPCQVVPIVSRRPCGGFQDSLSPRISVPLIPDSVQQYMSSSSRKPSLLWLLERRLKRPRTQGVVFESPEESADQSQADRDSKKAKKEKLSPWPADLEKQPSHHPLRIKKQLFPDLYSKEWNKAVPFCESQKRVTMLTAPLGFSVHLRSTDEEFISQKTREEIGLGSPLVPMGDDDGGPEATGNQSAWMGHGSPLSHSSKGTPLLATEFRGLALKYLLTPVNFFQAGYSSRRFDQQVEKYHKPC

[3] = molecular target: T2, GFP-Flag-Snm1B^221–363 (human, UniProt Q9H816 221-363); assay: co-IP; 293T transiently co-transfected, RIPA lysate, GFP-Flag-Snm1B fragments immunoprecipitated with anti-GFP antibody and GammaBind G Sepharose, immunoblot anti-Myc; settings: partners not purified
T2 construct: Named GFP-Flag-Snm1B: the Flag tag is at the 5′ end of the Snm1B fragment, GFP is fused in frame; also called PSF2 BR1; source: 293T, transiently transfected (pEGFP-C3), in lysate; not shown: Flag, N-terminal, kept
T2 sequence (looked up): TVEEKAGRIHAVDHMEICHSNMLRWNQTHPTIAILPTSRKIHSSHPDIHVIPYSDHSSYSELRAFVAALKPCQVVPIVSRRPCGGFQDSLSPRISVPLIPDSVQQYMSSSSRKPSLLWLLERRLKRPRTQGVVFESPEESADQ

[4] = molecular target: T3, Flag-Snm1B^Δ222–363 (human, UniProt Q9H816 1-221; Q9H816 364-532); assay: co-IP; 293T transiently co-transfected, RIPA lysate, Flag-Snm1B immunoprecipitated with anti-Flag M2 affinity gel at 4°C overnight, immunoblot for Myc-PSF2 or Mus81; with or without co-expressed Myc-PSF2 or HA-Mus81; settings: partners not purified
T3 construct: RGR is my translation read in frame from its first base; source: 293T, transiently transfected (pLPC), in lysate; not shown: Flag, N-terminal, kept
T3 chain: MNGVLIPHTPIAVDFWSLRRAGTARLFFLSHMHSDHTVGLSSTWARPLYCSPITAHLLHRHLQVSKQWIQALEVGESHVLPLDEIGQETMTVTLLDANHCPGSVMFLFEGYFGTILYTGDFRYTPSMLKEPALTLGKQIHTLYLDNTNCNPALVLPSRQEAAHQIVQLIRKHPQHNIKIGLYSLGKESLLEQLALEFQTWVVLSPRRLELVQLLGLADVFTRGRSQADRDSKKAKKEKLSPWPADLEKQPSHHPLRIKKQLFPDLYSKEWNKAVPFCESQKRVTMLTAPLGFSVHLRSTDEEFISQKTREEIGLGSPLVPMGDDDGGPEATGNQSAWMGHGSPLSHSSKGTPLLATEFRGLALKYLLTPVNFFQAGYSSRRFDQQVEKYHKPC

- other: normalized Myc-PSF2:Flag-Snm1B ratio ([1]; no Myc-TRF2 co-expressed, parent: 1): 1.05
- other: normalized Myc-PSF2:Flag-Snm1B ratio ([1]; wild type Myc-TRF2 co-expressed (parent value is Flag-Snm1B WT + Myc-TRF2 WT + Myc-PSF2 lane), parent: 0.41): 0.81
Molecule: N-terminal Flag epitope-tagged human Snm1B (Flag-Snm1B) (from UniProt Q9H816) N2

- fold increase of co-immunoprecipitated Mus81 with Myc-PSF2 against without Myc-PSF2 [2]: > 2 fold
B1: HA epitope-tagged Mus81 (HA-Mus81) (natural protein, UniProt Q96NY9 1-551, looked up)
chain: MAAPVRLGRKRPLPACPNPLFVRWLTEWRDEATRSRRRTRFVFQKALRSLRRYPLPLRSGKEAKILQHFGDGLCRMLDERLQRHRTSGGDHAPDSPSGENSPAPQGRLAEVQDSSMPVPAQPKAGGSGSYWPARHSGARVILLVLYREHLNPNGHHFLTKEELLQRCAQKSPRVAPGSARPWPALRSLLHRNLVLRTHQPARYSLTPEGLELAQKLAESEGLSLLNVGIGPKEPPGEETAVPGAASAELASEAGVQQQPLELRPGEYRVLLCVDIGETRGGGHRPELLRELQRLHVTHTVRKLHVGDFVWVAQETNPRDPANPGELVLDHIVERKRLDDLCSSIIDGRFREQKFRLKRCGLERRVYLVEEHGSVHNLSLPESTLLQAVTNTQVIDGFFVKRTADIKESAAYLALLTRGLQRLYQGHTLRSRPWGTPGNPESGAMTSPNPLCSLLTFSDFNAGAIKNKAQSVREVFARQLMQVRGVSGEKAAALVDRYSTPASLLAAYDACATPKEQETLLSTIKCGRLQRNLGPALSRTLSQLYCSYGPLT
notes: Mus81, subunit of the Mus81/Eme1 endonuclease; amplified from clone MGC:14953 (Imagenes); Detected with an anti-Mus81 antibody, which may also see the endogenous Mus81 of 293T cells; source: 293T, transiently transfected (pcDNA3), in lysate; not shown: HA, N-terminal, kept

- fold of co-immunoprecipitated Myc-PSF2 against GFP-Flag-Snm1B 413–532 [3]: ~3 fold more
- fold of co-immunoprecipitated Myc-PSF2 against Flag-Snm1B WT [4]: ~6 fold less
B2: N-terminal Myc epitope-tagged human PSF2 (Myc-PSF2) (natural protein, UniProt Q9Y248 1-185, looked up)
chain: MDAAEVEFLAEKELVTIIPNFSLDKIYLIGGDLGPFNPGLPVEVPLWLAINLKQRQKCRLLPPEWMDVEKLEKMRDHERKEETFTPMPSPYYMELTKLLLNHASDNIPKADEIRTLVKDMWDTRIAKLRVSADSFVRQQEAHAKLDNLTLMEINTSGTFLTQALNHMYKLRTNLQPLESTQSQDF
notes: PSF2, subunit of the GINS complex, human, full length; amplified from clone MGC-673 (ATCC); source: 293T, transiently transfected (pCMV-MYC), in lysate; not shown: Myc, N-terminal, kept
